Reference: the DeepSol protein solubility set

Test: soluble on expression in E. coli; label from the status in PepcDB or PDB records

| Sequence | soluble on expression in E. coli |
| --- | --- |
| MRKVLVFLKNSKKAFETFKRVERVLKDLNLSYKKFINRKELFKVLKPKDYELFLVIGGDGTFLSAARIASRFGVPLVGVNEGRFGFLTEIKKEEIKKVLPLVLEGRAKLQERLMIDVYLRSRNRLRYLGNYLNDAVISKSSIARIIRTKVFINGEEVLEVFGDGVILSTPTGSTAYALSAGGPIVYPESQNLLFVPICPHTLSNRPLVLPSKFEVKFKVVSENMEAFLTLDGQEGFHLKKGDEVIVKRSRYVCRMYSHPRKSFFGILKEKLRWG | soluble |
| MLWTENITLRFGGVTALDNVSVEVRRGEILGIIGPNGAGKTSLLNVITGVYKPQRGRVYFKGRDITGLKPHQRITLGLSRTFQHSELFHSMTVLENIMVRLHPWTRGSILEKALWAFRAKRWEVEARERAEHVIDLLDLHEHRHSPIGALPPGIQKKVDLAGALAQNPEVVLMDEPMAGLSKEEKEDIVRAIIETSETMHTTMVLIEHDMEVVTDVCDRVVVMDYGKVIFEGPPHEAVADERVRKAYLGE | soluble |
| MGSDKIHHHHHHMLPTLDGLPFHIAKAQGIYDSLGLDLTILSFNSAYDRDAAFQFKSMDGMITDYPSAVTLQAIHHTDLGIILKHDGYFCFIVSKESGINQLQELKEKNIAVSHNTIIEYATGQLLNKAGISQAEVNKPEIAQLPLRLQMLQYDQIDASFLPDPAASIAMNARHRSLISTQELGIDFTVTAFSREAINEKRREIELLITGYNLGIDYIKMHPQKEWKQVLIEIGVPENLTGLIALPVYRKAERPSADALDKAVTWLKTNNRIPQTYSGYKSLIDTTFIKTNSTTIK | not soluble |
| MGSDKIHHHHHHMLKGIPHDSPLYEVDEDRGIEYRNCDAIVGFFTIKGDVSDLLPEGLKAYSKPAQGGIWISHYSFSTVGEYHEYLTVIQVEDEQGDMGYYIPYIYVTNDSALAAGRELAGAPKKLANIGLVKELDVVMGYLERPTGKRLVTFVMKPNTRALGGMIDFVLPKPTYLYSVRHLPPIKGKGGVTQLVKWYADIDFHVDPKGERAIFMGPGNITYDSPSVIDPVHKVEIDTLMTALYFQFDMKLGFVDILREY | not soluble |
| MAWGQIAVVSPLVNIPVNTIEQSLLRQLPGCWGCKDKDSVFRYVNQEYAELLGHASPEECIGKTDFEMSSPTTECAQEFQRQDKHVIETGESLKILDIHPYPDGRWRAHIFTKTPWRDEQGNTLGTIFYGRELTDTAVIEVGYWVCRAIGTDMNHQSIFRFSNLNPKPEKLTCREQETLFLLLYGKKPQFISQVMGISTKTVEGHVARLRNKFEANSKNELIDKAMEAGYGSVVPKTLLKHQLSVVLNGER | not soluble |
| MHDTEKSDSGIVAEKPTNKAGLLAAEWAEPRPGTKGNAEQQRMHRTQGRARMTQSLDRVRTAARLRKKDRFTALFHHINVDTLRAAFFALRRKAAPGVDGMTWEDYEEDLEPRLADLHKRVQRGAYRPQPSRRTYIPKADGKQRPLAIAALEDKIVQGANRHRAQRHLRRRLLWLFLRVSARQRTTAAALEHHHHHH | soluble |
| MSLATSRTVLPDDLLINASDEVLTRQDLVLTALGRRPADRLLRVGRLLDVHSRTWLDDQEIVIKGRRIAYVGPAGSYAGEVNERFSEPDLAAVPGFGEAHKHIESSHLTPEWEAALVMPHGVTWTCEASHEFSNVNGARNLEFWLEARRRGSPMKIFPLPGSAVPPTAYEWGGGWFGYDEQKAFLSESLMVAGLDEVMDWPSISDPGNPSYDRLWGMIGATFEQRGVVEGHGAGLRDMASINAFAAAGLASDHEGWFLDEIWQKLLHGLFIELRPHSLPEVIRGLIDKGLTDWSQIALVTDDRSASDTLKIGATDHNVRLAIENGLAPETAIQCVTLNPARHMRLTPWVGSIAPGRFADIVLLSDVASLSIEKVWADGRPASEGATFIGVRPEIDWPQWATRTVKIDRTVTADDFRIEAPPNRTTVNAALLRPFHWHDDFITMELPVEEGAVQRDAARNVTKFSIVDRFSGEARVSRMFWLGTGPRTPETALASTLGHDKHNIWTVGSSDEAMAISVNALNEQQGGWVLVSGGKILARVRYEVGGLMTARSAEALDAEMQALYAAGAGIDWMYEPTFSPRWWPGFPERLSFATLTCSPWRWVLVAPSELAPDGFVNVLTGKTHPIVWEGHHHHHH | soluble |
| MGSDKIHHHHHHLSITKPHTTVLLTGATGNWGRATLRELSSRSDRVTVLVLSLPGEKDKAVLSEFSAMENLDVVWGDLTDYATVATCVARADVVLHVGAVVSPLADEQPELATRVNVGSMRNIIRAVKAQPDPSRIRVVGVGSVAQTGNRNPPLHWGRVGDPIRVSRFDAYGQSKVTAERELVEAGLPTWVWLRQTGIFHPGMLEIRDPIMTHSPFAGVMEWVSAQDSARLLANLCEPDVPGELWGGVYNIGGGEGWRLSNWQLQTAIGQAVGVKDIRKWYDRNWFALKNFHGQWYTDSDRLHALVPFRQDTFESALARALATAPSSVRNAGKVPAWIVKHLVMKPLSRKPRGTMAAIRSGTDQEVSAHFGSLPEWRSIGDWSTFEPPAPSRTPSYLDHGYDENKPASEWSAIDYLEAAAFRGGRLLTEDVNPGLPSAPLMWSCGAGHEFAASPRLVLQAGHWCPACTADPAGYDRQAEHNKFLAQVIDA | not soluble |
| PIFTLNTNIKATDVPSDFLSSTSALVGNILSKPGSYVAVHINTDQQLSFGGSTNPAAFGTLMSIGGIEPSRNRDHSAKLFDHLNTKLGIPKNRMYIHFVNLNGDDVGWNGTTF | soluble |
| MGSDKIHHHHHHMKTVNVHGFEASSKEEFQVIQSSLVKRIKLISDFKEEDIKLCAGVDLAYWTKGEKQYGVCCIIVIDYNTGEIIEKAYDYGEIEVPYMPGFLAFRELPLVIKTVKKLKNEPDIFMFDGNGYLHYNHMGIATHASFFLNKPTIGVAKSYLKVAGVDFEMPESFEGAFKDIVINEEVYGRVLRTKKDVKPIFVSCGNYIDLETCTKICSKLINNDSRLPITVRLADLETHKRRSELS | not soluble |
| ISNHPAPEYWCSIAYFEMDVQVGETFKVPSSCPIVTVDGYVDPSGGDRFCLGQLSNVHRTEAIERARLHIGKGVQLECKGEGDVWVRCLSDHAVFVQSYYLDREAGRAPGDAVHKIYPSAYIKVFDLRQCHRQMQQQAATAQAAAAAQAAAVAGNIPGPGSVGGIAPAISLSAAAGIGVDDLRRLCILRMSFVKGWGPDYPRQSIKETPCWIEIHLHRALQLLDEVLHTMPIADPQPLD | soluble |
| MGKISIVGLGPGDYSLISQGVLESLINSPKVFFRTEKHPIIDKLKETIQYTSLDYFYEKEENFDNVYLKISEFIIEESAKGDLVYAVPGHPRVAEKTVSIIERLANEKHIAVEILPSMSFVDAMFNYLAIDPSEGFKLVDAFEIENSYIDLDTSMIITQVYDKFIASNVKLKLMEHYDYNQEVCIVNGAGVKDLESKKFIKLCELDRNENFFDYLTSLYIPKSSKKMYNTVHDLEIIVNTLRSPSGCEWDKKQTHQSLKNSVIEEAYELCNAIDNNDIDEMVEELGDVLLQVIFHCQIGNEEGYFDLKEVVNGICKKLIHRHPHIFSGAKLDMSKFEKTWEELKKEEKGESTITDGLRRIPKHLPALMKASKVQHKAALVGFDWDNVEDVFKKIEEEYQELLDEHRVGNIKYIKEELGDLLFSIVNLARFLDIDSGEALNCTTEKFINRFDFIEKSAMNLNKKLEDMTLEEMDEFWNQAKKQ | not soluble |
| MIRVCNQIGIPYYAVNFEKQYYEKVFQYFLDEYKAGRTPNPDVLCNKEIKFKAFLEHALSLGADYLATGHYARVDRSGGKVRMLRGIDENKDQTYFLNQLTEDTLSKVMFPIGELQKSRVREIAKEAELATATKKDSTGICFIGERNFKTFLSQYLPAQPGDMMTMDGEVKGRHDGLMYYTIGQRHGLGIGGSGEPWFAVGKDLEKNILYVDQGFHNPLLYSDKITATNISWVRSDIMKGEEISCTAKFRYRQEDHKVTVRMTGEGEAEVIFDEQVRAVTPGQAVVFYDGEECLGGGTIDDVYKDGTKLWYV | not soluble |
| MGKMAAAVGSVATLATEPGEDAFRKLFRFYRQSRPGTADLEGVIDFSAAHAARGKGPGAQKVIKSQLNVSSVSEQNAYRAGLQPVSKWQAYGLKGYPGFIFIPNPFLPGYQWHWVKQCLKLYSQKPNVCNLDKHMSKEETQDLWEQSKEFLRYKEATKRRPRSLLEKLRWVTVGYHYNWDSKKYSADHYTPFPSDLGFLSEQVAAACGFEDFRAEAGILNYYRLDSTLGIHVDRSELDHSKPLLSFSFGQSAIFLLGGLQRDEAPTAMFMHSGDIMIMSGFSRLLNHAVPRVLPNPEGEGLPHCLEAPLPAVLPRDSMVEPCSMEDWQVCASYLKTARVNMTVRQVLATDQNFPLEPIEDEKRDISTEGFCHLDDQNSEVKRARINPHS | not soluble |
| MGSDKIHHHHHHMTFMPEKRNADLLFRGFSKTRLMVITLIAVNGPMTVTQLSKVIKTTRSNLYQAIKEMVSDGILVQTRTVSEKNYVEKFYDINTDLFDAIKYGDIRKAIEEMDEDKLRNILYSFLRSASAILSIMAEQVNLSNKDDLDKYVDYVRKNLLIISFSTHSTKDMSKFSSMLSNFFTEIDDDNDEKKDEHLLYIVGFPILNQMGFISKSRHEKLTGDGKE | not soluble |
| MGSDKIHHHHHHMNLKNTKAGFLLSAEHEKLPIAELNALIDIFSLEGNLNCFKNYVILDSSISEEIIKKMVKRGGYTNEGHVIFSESPIINQNVDETLENFFKSSETLDFPVERDETFAVRVLKLEKESPFNSMEIERKLGGIIKKKTSAQVSLKNPSKTVKVVISNDKMYTGIVIEKRDVEYFQNNRPHLRAYFHPGCIMPKLARCLVNLSRVKEGEIVLDPFCGTGGFLIEAGFLGCKLIGSDIDEQMVNGALLNLNTYDLSKQVISIKENDAKNVSKYLEALKIEKIDGIVTDPPYGISTSKKGDMLEIFEKIVDVLKDNDYLVFAAPNKMELDLNLVEFYEMRVHKSLTRYIHVYRKN | not soluble |
| MLVGERLENEPNFYQEIDFLKHLAGINGVPVVHKHFQYEQKRVLVMDKYLENLEQFRKRKEDEKLSPRVVIKLAFRLVSILEHIHRKGVVHQDIKLDNVVFGAKVGNKLDIVLIDYGIAAFTKPKPPRDLVDGALHCTTDFSSSVYASPGLVQGLKGDPVDDLQMLSFMLLWASKYNPFGEDSLESLRKKKEFIAKPSIFTQGDYKFLRPVISKIMEQKRSKRPDYKAISKKCANKDNYFNPDTAVHLGNAYEFF | not soluble |
| MSTRKDYLSFIAVAAHEFVHTWNVKQYRPKGIVPYDYQQENYSNLLWLVEGSTSYLQYQLLLRGNLMTTDEFFTALAKRITAHAHKPGKESQSVAQASFDAWISEGGDYGNNHSVNIYSEGFLASWLLDFDILAKTALEHHHHHH | not soluble |
| MNGGKETIDDMSLVVGMYGNYEVTKTGNLVGILEVSGINLDLLNETEQQDVFEDYGAFLMSTLGEGVDDTLQFLEPTIPVNMTTYLNGLKRRYLALQKDHPEQQFKIQLIASYLDHFTKVQESKNMTTKQHLLIVKVPIKDKSAESLNLAVAHLDEKIEQVKRDIENALTDFDVTAKILTSQEVQEILKNLINFNGLEHHHHHH | soluble |
| MKGEGVIVGILNKNFSLSKGDLDVVSLGEILVDMISTEEVNSLSQSREYTRHFGGSPANIAVNLSRLGKKVALISRLGADAFGNYLLDVLKGEQIITDGIQQDKERRTTIVYVSKSTRTPDWLPYREADMYLQEDDIIFELIKRSKVFHLSTFILSRKPARDTAIKAFNYAREQGKIVCFDPCYRKVLWPEGDDGAGVVEEIISRADFVKPSLDDARHLFGPDSPENYVKRYLELGVKAVILTLGEEGVIASDGEEIIRIPAFSEDAVDVTGAGDAFWSGFICGLLDGYTVKRSIKLGNGVAAFKIRGVGALSPVPSKEDIIKEYNI | soluble |
| MANVVAEGAYPYCRLTDQPLSVDEVLAAVSGPEQGGIVIFVGNVRDHNAGHDVTRLFYEAYPPMVIRTLMSIIGRCEDKAEGVRVAVAHRTGELQIGDAAVVIGASAPHRAEAFDAARMCIELLKQEVPIWKKEFSSTGAEWVGDRP | soluble |
| MRYEIADNYYAFWFRFVYPNRKLVERELYKEALELVKRDYNHYMGRVFEKASLDFLWKRFAFERAGRWWSREEEIDVVGVKRGMAYFFEVKWKDLSEREARRSLEHHHHHH | not soluble |
